In US20240382587A1 (TRUSTEES OF INDIANA UNIVERSITY, published 2024):

Target: T1, recombinant human B domain deleted (BDD)-FVIII (Xyntha) (human, UniProt P00451 20-2351)
T1 sequence (looked up): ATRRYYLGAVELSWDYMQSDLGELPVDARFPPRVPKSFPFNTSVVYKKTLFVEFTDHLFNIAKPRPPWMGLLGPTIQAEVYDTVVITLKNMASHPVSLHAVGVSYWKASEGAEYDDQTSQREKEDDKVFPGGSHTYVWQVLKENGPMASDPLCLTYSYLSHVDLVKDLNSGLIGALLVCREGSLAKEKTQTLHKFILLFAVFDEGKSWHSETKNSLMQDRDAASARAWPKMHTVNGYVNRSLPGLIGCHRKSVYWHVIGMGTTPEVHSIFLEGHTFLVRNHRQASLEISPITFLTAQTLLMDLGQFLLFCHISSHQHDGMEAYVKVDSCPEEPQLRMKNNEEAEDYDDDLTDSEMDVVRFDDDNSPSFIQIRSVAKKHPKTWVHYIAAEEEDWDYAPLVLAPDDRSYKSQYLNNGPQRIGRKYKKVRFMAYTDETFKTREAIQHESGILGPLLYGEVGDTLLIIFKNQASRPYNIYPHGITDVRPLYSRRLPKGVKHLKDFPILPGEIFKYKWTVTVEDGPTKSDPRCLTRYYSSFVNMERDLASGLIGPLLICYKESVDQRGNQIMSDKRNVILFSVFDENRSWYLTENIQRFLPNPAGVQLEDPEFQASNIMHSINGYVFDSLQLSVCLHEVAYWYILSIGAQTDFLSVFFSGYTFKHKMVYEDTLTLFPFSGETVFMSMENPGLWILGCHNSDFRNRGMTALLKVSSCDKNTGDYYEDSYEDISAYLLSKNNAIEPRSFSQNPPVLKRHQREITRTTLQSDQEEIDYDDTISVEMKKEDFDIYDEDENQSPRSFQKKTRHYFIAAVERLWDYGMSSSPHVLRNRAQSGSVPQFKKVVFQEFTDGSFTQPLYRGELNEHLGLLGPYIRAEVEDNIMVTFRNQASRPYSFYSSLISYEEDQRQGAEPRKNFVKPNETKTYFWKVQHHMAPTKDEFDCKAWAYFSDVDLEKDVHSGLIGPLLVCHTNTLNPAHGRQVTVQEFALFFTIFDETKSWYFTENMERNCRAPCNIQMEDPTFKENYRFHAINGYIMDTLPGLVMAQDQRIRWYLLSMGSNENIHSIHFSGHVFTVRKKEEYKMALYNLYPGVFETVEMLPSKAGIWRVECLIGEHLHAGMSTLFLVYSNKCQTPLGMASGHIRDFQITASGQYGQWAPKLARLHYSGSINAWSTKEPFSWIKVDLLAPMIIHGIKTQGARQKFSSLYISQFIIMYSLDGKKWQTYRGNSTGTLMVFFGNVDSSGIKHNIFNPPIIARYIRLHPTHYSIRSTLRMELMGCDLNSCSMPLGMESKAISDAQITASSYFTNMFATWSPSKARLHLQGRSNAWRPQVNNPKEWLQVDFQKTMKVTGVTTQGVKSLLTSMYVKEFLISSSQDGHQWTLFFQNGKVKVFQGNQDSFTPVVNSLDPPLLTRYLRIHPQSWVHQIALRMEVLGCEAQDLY
Assay: cell-based or functional assay

- CTLA4 expression in TRUC Tregs in vitro: 5 fold
B1: FVIII TRUC (TCR fusion construct: BO2C11 FVIII scFv fused to the N-terminus of murine CD3 epsilon) (scFv)
chain: EIALTQSPGTLSLSPGERATLSCRASQSFSSSYLAWYQQKPGQAPRLLIYGASTRATGIPDRFSGSGSGTDFTLTISRLEPEDFAVYYCQKYGTSAITFGQGTRLEIKGGGGGSGGGGSGGGGSQVQLVQSGAEVKKPGASVKVSCKVSGYTLTELPVHWVRQAPGKGLEWVGSFDPESGESIYAREFQGSVTMTADTSTDIAYMELSSLRSDDTAVYYCAVPDPDAFDIWGQGTMVTVSSGGGGSGGGGSGGGGSDAENIEYKVSISGTSVELTCPLDSDENLKWEKNGQELPQKHDKHLVLQDFSEVEDSGYYVCYTPASNKNTYLYLKARVCEYCVEVDLTAVAIIIIVDICITLGLLMVIYYWSKNRKAKAKPVTRGTGAGSRPRGQNKERPPPVPNPDYEPIRKGQRDLYSGLNQRAV
